From PMC7822796, “Pleiotropic function of the SQUAMOSA PROMOTER-BINDING PROTEIN-LIKE gene TaSPL14 in wheat plant architecture”

T1: GST-TaSPL14 (UniProt A0A3B6LP29 1-396)
T1 sequence: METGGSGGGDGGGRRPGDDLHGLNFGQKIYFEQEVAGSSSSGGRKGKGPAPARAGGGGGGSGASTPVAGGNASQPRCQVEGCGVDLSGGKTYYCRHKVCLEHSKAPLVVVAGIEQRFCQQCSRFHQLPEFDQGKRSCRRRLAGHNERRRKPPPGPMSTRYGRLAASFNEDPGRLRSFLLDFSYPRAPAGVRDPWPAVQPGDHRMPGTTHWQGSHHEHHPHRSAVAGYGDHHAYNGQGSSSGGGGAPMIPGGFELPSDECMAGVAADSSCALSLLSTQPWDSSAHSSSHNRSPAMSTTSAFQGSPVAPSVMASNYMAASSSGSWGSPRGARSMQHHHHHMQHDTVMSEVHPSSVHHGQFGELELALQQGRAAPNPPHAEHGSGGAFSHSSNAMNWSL

B1: TaERF1 promoter probe (dsDNA)
DNA 1: AGAAAAGAAAAAAGTACGATCATTCCTCGT
DNA 2: ACGAGGAATGATCGTACTTTTTTCTTTTCT
B2: TaEIL1 promoter probe (dsDNA)
DNA 1: GCCAAAACTTTTAGTACAACTTAAGTCTTT
DNA 2: AAAGACTTAAGTTGTACTAAAAGTTTTGGC
B3: TaRAP2.11 promoter probe (dsDNA)
DNA 1: ATGACTTGATGCGGTACAATAATATTAAGC
DNA 2: GCTTAATATTATTGTACCGCATCAAGTCAT

Target: T1, GST-TaSPL14
Assay: EMSA; 10 mM ZnCl2, poly dI-dC; competed by unlabeled probe; EMSA: 1x binding buffer (printed as 100 mM Tris, 500 mM KCl, 10 mM DTT, pH 7.5), 10% glycerol, 0.5 mM EDTA, 10 mM ZnCl2, 50 ng/uL poly dI-dC, 20 uL, 30 min at room temperature, 6% native PAGE
Conditions: protein: recombinant; tags: GST (N-terminal, pGEX6P-1); label: 5' biotin; blunt

Binder | binding result
B1 | binds
B2 | binds
B3 | binds
